Source: US20150064134A1

Key:
Test in all cases: cell-based or functional assay
AMPKα2(h) (human) = AMPKα2(h) (human) (UniProt P54646)
Abl(Y253F)(h) (human) = Abl(Y253F)(h) (human) (UniProt P00519)
[1] = target: CDK7/cyclinH/MAT1(h) (human) (UniProt P50613)
CaMKIIδ(h) (human) = CaMKIIδ(h) (human) (UniProt Q13557)
DMPK(h) (human) = DMPK(h) (human) (UniProt Q09013)
EphB4(h) (human) = EphB4(h) (human) (UniProt P54760)
Fyn(h) (human) = Fyn(h) (human) (UniProt P06241)
GSK3α(h) (human) = GSK3α(h) (human) (UniProt P49840)
MEK1(h) (human) = MEK1(h) (human) (UniProt Q02750)
Met(D1246H)(h) (human) = Met(D1246H)(h) (human) (UniProt P08581)
MuSK(h) (human) = MuSK(h) (human) (UniProt O15146)
PAK2(h) (human) = PAK2(h) (human) (UniProt Q13177)
PKA(h) (human) = PKA(h) (human) (UniProt P17612)
PKD2(h) (human) = target: T1, PKD2(h) (human) (UniProt Q9BZL6)
T1 sequence (looked up): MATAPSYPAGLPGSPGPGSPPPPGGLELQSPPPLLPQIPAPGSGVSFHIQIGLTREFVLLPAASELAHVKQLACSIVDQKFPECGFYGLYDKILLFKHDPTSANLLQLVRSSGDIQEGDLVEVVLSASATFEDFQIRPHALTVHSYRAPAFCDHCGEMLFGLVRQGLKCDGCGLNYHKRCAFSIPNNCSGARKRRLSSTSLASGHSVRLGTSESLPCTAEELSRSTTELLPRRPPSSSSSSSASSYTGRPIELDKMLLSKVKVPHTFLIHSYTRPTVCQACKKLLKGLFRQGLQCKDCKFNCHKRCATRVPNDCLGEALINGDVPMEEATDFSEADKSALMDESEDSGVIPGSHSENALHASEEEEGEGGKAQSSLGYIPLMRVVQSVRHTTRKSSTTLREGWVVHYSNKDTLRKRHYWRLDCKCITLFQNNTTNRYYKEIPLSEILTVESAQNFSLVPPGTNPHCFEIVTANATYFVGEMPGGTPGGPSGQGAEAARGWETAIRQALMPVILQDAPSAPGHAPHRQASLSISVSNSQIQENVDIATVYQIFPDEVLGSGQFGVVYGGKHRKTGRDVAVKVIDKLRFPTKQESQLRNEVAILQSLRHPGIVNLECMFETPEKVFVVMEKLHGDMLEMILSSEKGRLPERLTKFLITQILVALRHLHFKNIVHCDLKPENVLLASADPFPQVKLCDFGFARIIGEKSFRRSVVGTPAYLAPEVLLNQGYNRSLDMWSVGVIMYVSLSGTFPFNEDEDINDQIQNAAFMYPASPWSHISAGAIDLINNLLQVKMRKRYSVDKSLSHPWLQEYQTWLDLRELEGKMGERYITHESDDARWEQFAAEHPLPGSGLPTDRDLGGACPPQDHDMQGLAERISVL

PKG1α(h) (human) = PKG1α(h) (human) (UniProt Q13976)
Plk3(h) (human) = Plk3(h) (human) (UniProt Q9H4B4)
SAPK2a(h) (human) = SAPK2a(h) (human) (UniProt Q16539)
SIK(h) (human) = SIK(h) (human) (UniProt P57059)
TAO1(h) (human) = target: T2, TAO1(h) (human) (UniProt Q7L7X3)
T2 sequence (looked up): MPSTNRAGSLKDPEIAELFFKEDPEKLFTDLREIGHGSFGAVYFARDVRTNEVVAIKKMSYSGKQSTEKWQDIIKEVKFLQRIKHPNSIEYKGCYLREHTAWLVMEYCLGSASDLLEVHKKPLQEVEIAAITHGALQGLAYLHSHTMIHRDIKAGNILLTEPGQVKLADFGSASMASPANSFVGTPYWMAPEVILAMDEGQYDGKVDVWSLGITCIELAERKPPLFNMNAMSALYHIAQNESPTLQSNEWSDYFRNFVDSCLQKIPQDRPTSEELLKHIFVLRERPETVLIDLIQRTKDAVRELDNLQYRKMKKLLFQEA

TSSK2(h) (human) = target: T3, TSSK2(h) (human) (UniProt Q96PF2)
T3 sequence (looked up): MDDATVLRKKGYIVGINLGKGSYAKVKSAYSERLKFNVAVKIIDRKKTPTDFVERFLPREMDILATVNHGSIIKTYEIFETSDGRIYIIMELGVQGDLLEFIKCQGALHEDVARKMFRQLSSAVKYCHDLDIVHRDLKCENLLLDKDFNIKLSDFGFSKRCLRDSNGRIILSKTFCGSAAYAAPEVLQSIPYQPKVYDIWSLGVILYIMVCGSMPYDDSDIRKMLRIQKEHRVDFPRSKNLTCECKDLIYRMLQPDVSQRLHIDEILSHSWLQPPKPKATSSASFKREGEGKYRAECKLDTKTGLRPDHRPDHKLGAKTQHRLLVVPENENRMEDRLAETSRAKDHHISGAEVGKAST

ULK3(h) (human) = target: T4, ULK3(h) (human) (UniProt Q6PHR2)
T4 sequence (looked up): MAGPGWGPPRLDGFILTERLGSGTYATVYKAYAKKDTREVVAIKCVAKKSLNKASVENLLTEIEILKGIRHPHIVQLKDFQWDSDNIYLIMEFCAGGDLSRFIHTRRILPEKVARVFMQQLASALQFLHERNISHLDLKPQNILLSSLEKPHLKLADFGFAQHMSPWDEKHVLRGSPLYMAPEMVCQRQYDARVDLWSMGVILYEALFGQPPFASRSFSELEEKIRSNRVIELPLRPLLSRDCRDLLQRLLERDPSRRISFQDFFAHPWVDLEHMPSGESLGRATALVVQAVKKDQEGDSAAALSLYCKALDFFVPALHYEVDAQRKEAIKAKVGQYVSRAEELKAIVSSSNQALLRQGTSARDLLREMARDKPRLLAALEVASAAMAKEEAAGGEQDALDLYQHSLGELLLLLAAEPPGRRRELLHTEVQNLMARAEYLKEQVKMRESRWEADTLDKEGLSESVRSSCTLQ

p70S6K(h) (human) = p70S6K(h) (human) (UniProt P23443)

CDK7/cyclinH/MAT1(h) (human), sequence (P50613 whole entry, chain 1 of 3): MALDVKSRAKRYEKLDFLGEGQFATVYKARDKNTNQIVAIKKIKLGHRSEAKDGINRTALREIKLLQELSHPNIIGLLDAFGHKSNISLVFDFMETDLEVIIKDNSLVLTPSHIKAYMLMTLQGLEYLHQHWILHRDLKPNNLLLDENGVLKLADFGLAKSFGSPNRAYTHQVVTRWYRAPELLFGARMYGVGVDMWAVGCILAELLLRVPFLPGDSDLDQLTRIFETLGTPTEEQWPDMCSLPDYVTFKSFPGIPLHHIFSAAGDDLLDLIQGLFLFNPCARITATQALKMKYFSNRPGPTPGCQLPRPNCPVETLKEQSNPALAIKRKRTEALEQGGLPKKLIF
CDK7/cyclinH/MAT1(h) (human), sequence (P51946 whole entry, chain 2 of 3, further chain): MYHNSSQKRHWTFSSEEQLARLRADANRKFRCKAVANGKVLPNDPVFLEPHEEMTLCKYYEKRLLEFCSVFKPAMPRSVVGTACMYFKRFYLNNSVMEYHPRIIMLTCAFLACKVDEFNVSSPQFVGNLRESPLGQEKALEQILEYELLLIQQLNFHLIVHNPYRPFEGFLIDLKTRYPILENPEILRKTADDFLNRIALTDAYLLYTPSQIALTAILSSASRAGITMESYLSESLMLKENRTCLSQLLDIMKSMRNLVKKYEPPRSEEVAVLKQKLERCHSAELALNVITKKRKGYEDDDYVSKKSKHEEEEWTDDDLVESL
CDK7/cyclinH/MAT1(h) (human), sequence (P51948 whole entry, chain 3 of 3, further chain): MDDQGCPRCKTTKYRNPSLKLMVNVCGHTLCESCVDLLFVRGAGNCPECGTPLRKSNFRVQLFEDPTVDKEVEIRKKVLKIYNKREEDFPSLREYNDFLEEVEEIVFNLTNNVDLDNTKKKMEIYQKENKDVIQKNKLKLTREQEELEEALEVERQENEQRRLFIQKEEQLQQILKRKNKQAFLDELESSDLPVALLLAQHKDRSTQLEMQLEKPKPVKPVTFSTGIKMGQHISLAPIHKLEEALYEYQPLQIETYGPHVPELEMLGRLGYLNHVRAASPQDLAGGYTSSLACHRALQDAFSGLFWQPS
PAK2(h) (human), sequence (Q13177 whole entry): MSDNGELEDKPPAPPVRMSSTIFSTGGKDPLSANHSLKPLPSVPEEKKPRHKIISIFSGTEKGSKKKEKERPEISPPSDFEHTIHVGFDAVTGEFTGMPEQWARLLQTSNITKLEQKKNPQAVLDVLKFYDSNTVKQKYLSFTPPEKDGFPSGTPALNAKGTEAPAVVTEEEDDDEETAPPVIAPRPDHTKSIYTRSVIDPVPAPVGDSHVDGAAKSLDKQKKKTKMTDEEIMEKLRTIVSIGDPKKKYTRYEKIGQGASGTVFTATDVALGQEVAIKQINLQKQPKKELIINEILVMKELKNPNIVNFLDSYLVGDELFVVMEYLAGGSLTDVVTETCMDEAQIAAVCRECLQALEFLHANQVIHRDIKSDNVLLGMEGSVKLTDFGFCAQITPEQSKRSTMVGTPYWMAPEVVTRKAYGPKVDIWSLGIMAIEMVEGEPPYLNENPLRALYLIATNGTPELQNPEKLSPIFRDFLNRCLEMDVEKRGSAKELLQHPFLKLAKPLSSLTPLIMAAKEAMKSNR
SAPK2a(h) (human), sequence (Q16539 whole entry): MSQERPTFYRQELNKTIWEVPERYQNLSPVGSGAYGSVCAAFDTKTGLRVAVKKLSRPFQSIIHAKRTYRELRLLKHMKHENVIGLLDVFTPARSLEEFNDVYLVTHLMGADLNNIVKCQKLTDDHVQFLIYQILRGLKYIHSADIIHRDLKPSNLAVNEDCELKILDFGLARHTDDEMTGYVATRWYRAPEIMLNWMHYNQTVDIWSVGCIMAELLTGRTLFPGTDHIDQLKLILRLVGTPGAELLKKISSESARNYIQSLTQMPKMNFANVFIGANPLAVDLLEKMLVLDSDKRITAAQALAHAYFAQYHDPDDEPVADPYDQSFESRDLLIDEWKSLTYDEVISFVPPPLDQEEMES
EphB4(h) (human), sequence (P54760 561-987 limits assumed): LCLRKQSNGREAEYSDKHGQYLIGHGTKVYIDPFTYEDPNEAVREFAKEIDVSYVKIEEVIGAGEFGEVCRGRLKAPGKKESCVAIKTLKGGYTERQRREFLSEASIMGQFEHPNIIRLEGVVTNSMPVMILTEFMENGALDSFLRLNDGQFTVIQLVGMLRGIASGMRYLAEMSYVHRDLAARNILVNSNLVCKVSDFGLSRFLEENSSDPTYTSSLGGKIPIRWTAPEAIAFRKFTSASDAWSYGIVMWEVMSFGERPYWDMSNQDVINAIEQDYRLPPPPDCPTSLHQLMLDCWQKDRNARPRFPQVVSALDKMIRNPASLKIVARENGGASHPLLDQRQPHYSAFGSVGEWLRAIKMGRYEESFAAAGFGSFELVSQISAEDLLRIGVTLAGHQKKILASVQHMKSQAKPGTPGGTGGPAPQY
Abl(Y253F)(h) (human), sequence (P00519 27-1130 Y253F limits assumed): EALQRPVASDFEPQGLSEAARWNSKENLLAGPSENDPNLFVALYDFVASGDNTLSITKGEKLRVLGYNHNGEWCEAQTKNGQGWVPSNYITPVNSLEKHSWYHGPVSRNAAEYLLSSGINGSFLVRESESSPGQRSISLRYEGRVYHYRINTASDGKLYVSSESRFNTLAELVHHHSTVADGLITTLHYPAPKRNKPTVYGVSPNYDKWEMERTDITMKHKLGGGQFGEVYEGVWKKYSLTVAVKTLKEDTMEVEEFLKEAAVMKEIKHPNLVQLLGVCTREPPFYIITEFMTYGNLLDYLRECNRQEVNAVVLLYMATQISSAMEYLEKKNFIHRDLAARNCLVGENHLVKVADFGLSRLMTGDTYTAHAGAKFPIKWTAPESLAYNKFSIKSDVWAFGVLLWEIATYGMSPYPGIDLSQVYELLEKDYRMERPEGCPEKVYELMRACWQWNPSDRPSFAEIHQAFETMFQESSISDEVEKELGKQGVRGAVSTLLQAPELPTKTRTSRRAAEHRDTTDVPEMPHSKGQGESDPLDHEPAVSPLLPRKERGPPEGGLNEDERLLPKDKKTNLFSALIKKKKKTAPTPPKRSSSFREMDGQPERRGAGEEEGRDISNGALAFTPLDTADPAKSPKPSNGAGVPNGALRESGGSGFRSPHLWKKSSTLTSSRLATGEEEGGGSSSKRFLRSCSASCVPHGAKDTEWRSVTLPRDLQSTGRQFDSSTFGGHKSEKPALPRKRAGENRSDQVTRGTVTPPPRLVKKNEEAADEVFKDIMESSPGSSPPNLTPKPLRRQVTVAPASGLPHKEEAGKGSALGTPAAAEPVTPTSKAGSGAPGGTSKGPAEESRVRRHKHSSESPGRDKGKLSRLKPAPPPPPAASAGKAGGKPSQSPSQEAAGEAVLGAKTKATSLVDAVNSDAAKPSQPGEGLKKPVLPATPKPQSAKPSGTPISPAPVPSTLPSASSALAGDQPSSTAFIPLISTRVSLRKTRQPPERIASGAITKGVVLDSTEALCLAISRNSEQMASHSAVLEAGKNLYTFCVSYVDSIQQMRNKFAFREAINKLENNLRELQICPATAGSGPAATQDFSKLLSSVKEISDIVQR

| % activity at 100 µM (AMPKα2(h) (human)) [%] | % activity at 100 µM (Abl(Y253F)(h) (human)) [%] | % activity at 100 µM [1] [%] | % activity at 100 µM (CaMKIIδ(h) (human)) [%] | % activity at 100 µM (DMPK(h) (human)) [%] | % activity at 100 µM (EphB4(h) (human)) [%] | % activity at 100 µM (Fyn(h) (human)) [%] | % activity at 100 µM (GSK3α(h) (human)) [%] | % activity at 100 µM (MEK1(h) (human)) [%] | % activity at 100 µM (Met(D1246H)(h) (human)) [%] | % activity at 100 µM (MuSK(h) (human)) [%] | % activity at 100 µM (PAK2(h) (human)) [%] | % activity at 100 µM (PKA(h) (human)) [%] | % activity at 100 µM (PKD2(h) (human)) [%] | % activity at 100 µM (PKG1α(h) (human)) [%] | % activity at 100 µM (Plk3(h) (human)) [%] | % activity at 100 µM (SAPK2a(h) (human)) [%] | % activity at 100 µM (SIK(h) (human)) [%] | % activity at 100 µM (TAO1(h) (human)) [%] | % activity at 100 µM (TSSK2(h) (human)) [%] | Substance | further results |
| --- | --- | --- | --- | --- | --- | --- | --- | --- | --- | --- | --- | --- | --- | --- | --- | --- | --- | --- | --- | --- | --- |
| 54 | 86 | 65 | 1 | 59 | 44 | 74 | 157 | 77 | 125 | 93 | 65 | 119 | 33 | 64 | 127 | 90 | 66 | 82 | 98 | MMI-0300 (peptide) | % activity at 100 µM (ULK3(h) (human)): 167%; % activity at 100 µM (p70S6K(h) (human)): 35% |
| 58 | 78 | 47 | 2 | 54 | 28 | 54 | 164 | 77 | 68 | 93 | 59 | 119 | 25 | 58 | 129 | 85 | 68 | 73 | 94 | MMI-0400 (peptide) | % activity at 100 µM (ULK3(h) (human)): 147%; % activity at 100 µM (p70S6K(h) (human)): 33% |
| 9 | 29 | 15 | 1 | 12 | 38 | 83 | 175 | 21 | 150 | 27 | 44 | 118 | 10 | 25 | 122 | 52 | 40 | 24 | 92 | MMI-0500 (peptide) | % activity at 100 µM (ULK3(h) (human)): 177%; % activity at 100 µM (p70S6K(h) (human)): 3% |
